This note sets out measurements from the supplement of paper PMC9112550, “Optimization of the antimicrobial peptide Bac7 by deep mutational scanning” (BMC Biology, 2022).

This data set relates to Escherichia coli TOP10. Put plainly: shrunken log2 fold change of peptide-encoding DNA abundance (4.5 h post-induction vs induction); higher = less antimicrobial activity (less host growth inhibition). The settings on record: time post-induction: 4.5 h; library: site-saturation at positions 5, 18, 19, 20.
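Note: peptides expressed intracellularly from a pBAD plasmid library in pooled LB shake-flask culture, induced with 0.3% L-arabinose, DNA abundance read by NGS, three biological replicates, DESeq2 with apeglm shrinkage.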

With RRIRYRPPRLPRPRPRPAHEPRP, the “shrunken log2 fold change” value came to 0.241. The figure for RRIRQRPPRLPRPRPRPCFTPRP is -0.684. The result for RRIRCRPPRLPRPRPRPLDQPRP reads 0.221. The figure for RRIRRRPPRLPRPRPRPMACPRP is -0.0812. Consider RRIRLRPPRLPRPRPRPPDLPRP, for which the “shrunken log2 fold change” value is 0.169.

With RRIRLRPPRLPRPRPRPSPPPRP, the “shrunken log2 fold change” value came out at 0.198. The figure for RRIRERPPRLPRPRPRPPAWPRP is 0.0898. The result for RRIRARPPRLPRPRPRPHCWPRP reads 0.17; that for RRIRYRPPRLPRPRPRPTNKPRP, -0.699.

As to RRIRIRPPRLPRPRPRPVYTPRP, the “shrunken log2 fold change” value was -0.346.

On to RRIRMRPPRLPRPRPRPQHIPRP, for which the “shrunken log2 fold change” value was -0.103. Take RRIRVRPPRLPRPRPRPYRSPRP: the “shrunken log2 fold change” value is -1.55. As to RRIRARPPRLPRPRPRPHAAPRP, the “shrunken log2 fold change” value worked out at 0.635. The figure for RRIRKRPPRLPRPRPRPPFIPRP is -0.00551; for RRIRNRPPRLPRPRPRPHDTPRP it is -0.267; for RRIRQRPPRLPRPRPRPFPEPRP it is -0.0157.

With RRIRFRPPRLPRPRPRPYTPPRP, the “shrunken log2 fold change” value is -1.28.

For RRIRFRPPRLPRPRPRPGCNPRP, the “shrunken log2 fold change” value is -0.292. The result for RRIRFRPPRLPRPRPRPFPEPRP reads -0.363.

As for RRIRGRPPRLPRPRPRPLFHPRP, the “shrunken log2 fold change” value is 0.134. The figure for RRIRMRPPRLPRPRPRPEDIPRP is -0.0245; for RRIRNRPPRLPRPRPRPHTMPRP it is -0.298; for RRIRPRPPRLPRPRPRPMGPPRP it is -0.248. The figure for RRIRARPPRLPRPRPRPLHEPRP is 0.314; for RRIRYRPPRLPRPRPRPGTKPRP it is -0.0505. The figure for RRIRWRPPRLPRPRPRPLVGPRP is 0.282. In the case of RRIRDRPPRLPRPRPRPLPVPRP, the “shrunken log2 fold change” value was -0.421. The result for RRIRARPPRLPRPRPRPQLNPRP reads -0.0125. The result for RRIRVRPPRLPRPRPRPFVMPRP reads 0.0296; that for RRIRSRPPRLPRPRPRPNPDPRP, -0.123. Turning to RRIRPRPPRLPRPRPRPQQVPRP, the “shrunken log2 fold change” value came out at 0.14. The result for RRIRHRPPRLPRPRPRPWMLPRP reads -0.0885; that for RRIRMRPPRLPRPRPRPMVTPRP, 0.131. The result for RRIRPRPPRLPRPRPRPYVGPRP reads -0.157; that for RRIRCRPPRLPRPRPRPDASPRP, 0.27; that for RRIRARPPRLPRPRPRPCILPRP, -1.06. The figure for RRIRQRPPRLPRPRPRPNCWPRP is 0.0822; for RRIRNRPPRLPRPRPRPRWIPRP it is 0.0158.

For RRIRFRPPRLPRPRPRPEKCPRP, the “shrunken log2 fold change” value is 0.00859. The figure for RRIRHRPPRLPRPRPRPNPSPRP is -0.0145; for RRIRDRPPRLPRPRPRPQGLPRP it is 0.0467. The figure for RRIRDRPPRLPRPRPRPQIWPRP is 0.352; for RRIRMRPPRLPRPRPRPACSPRP it is 0.551. The result for RRIRFRPPRLPRPRPRPTGDPRP reads 0.127. RRIRFRPPRLPRPRPRPRVTPRP: the “shrunken log2 fold change” value was 0.42.

As for RRIRFRPPRLPRPRPRPFQCPRP, the “shrunken log2 fold change” value was -0.0784.

As for RRIRIRPPRLPRPRPRPLVYPRP, the “shrunken log2 fold change” value is -0.592.

With RRIRTRPPRLPRPRPRPDETPRP, the “shrunken log2 fold change” value is 0.0482. Consider RRIRIRPPRLPRPRPRPAKYPRP, for which the “shrunken log2 fold change” value was -0.247. The figure for RRIRPRPPRLPRPRPRPIFEPRP is 0.154; for RRIRCRPPRLPRPRPRPPWMPRP it is 0.248. The result for RRIRCRPPRLPRPRPRPHHFPRP reads -0.219. As for RRIRRRPPRLPRPRPRPSIPPRP, the “shrunken log2 fold change” value was -0.0753. The result for RRIRVRPPRLPRPRPRPEWIPRP reads -0.0835; that for RRIRWRPPRLPRPRPRPVSEPRP, 0.0771; that for RRIRHRPPRLPRPRPRPQQHPRP, -0.384. RRIRKRPPRLPRPRPRPYHMPRP: the “shrunken log2 fold change” value is -0.0573. On to RRIRDRPPRLPRPRPRPMMMPRP, for which the “shrunken log2 fold change” value was -0.0648. The figure for RRIRIRPPRLPRPRPRPEQRPRP is -0.0838; for RRIRCRPPRLPRPRPRPIFFPRP it is -0.0793.

RRIRIRPPRLPRPRPRPDIMPRP: the “shrunken log2 fold change” value is -0.121. For the sequence RRIRTRPPRLPRPRPRPMRRPRP, the “shrunken log2 fold change” value was determined as 0.00555. The figure for RRIRLRPPRLPRPRPRPNGEPRP is 0.00184. The figure for RRIRGRPPRLPRPRPRPPYGPRP is 0.341; for RRIRTRPPRLPRPRPRPLHEPRP it is -0.191; for RRIRIRPPRLPRPRPRPNCWPRP it is 0.0114. The figure for RRIRHRPPRLPRPRPRPCEEPRP is 0.0167; for RRIRGRPPRLPRPRPRPHPWPRP it is 0.345. In the case of RRIRVRPPRLPRPRPRPQWQPRP, the “shrunken log2 fold change” value was 0.0741. The result for RRIRHRPPRLPRPRPRPPHSPRP reads 0.0314; that for RRIRRRPPRLPRPRPRPVKDPRP, -0.0534.

Turning to RRIRHRPPRLPRPRPRPHTPPRP, the “shrunken log2 fold change” value was -0.147. Consider RRIRHRPPRLPRPRPRPRDMPRP, for which the “shrunken log2 fold change” value stood at 0.137.

For the sequence RRIRDRPPRLPRPRPRPGMTPRP, the “shrunken log2 fold change” value was found to be 0.0654.

On to RRIRERPPRLPRPRPRPSVKPRP, for which the “shrunken log2 fold change” value is -0.625.

Take RRIRPRPPRLPRPRPRPPPGPRP: the “shrunken log2 fold change” value is 0.816. The result for RRIRLRPPRLPRPRPRPPSLPRP reads 0.0267. The figure for RRIRVRPPRLPRPRPRPLLDPRP is 0.157. The figure for RRIRIRPPRLPRPRPRPPCMPRP is -0.169; for RRIRDRPPRLPRPRPRPMNPPRP it is -0.0564; for RRIRYRPPRLPRPRPRPFQKPRP it is -0.0884. As to RRIRDRPPRLPRPRPRPWNQPRP, the “shrunken log2 fold change” value is -0.0409. The figure for RRIRLRPPRLPRPRPRPGDIPRP is -0.385; for RRIRYRPPRLPRPRPRPVVTPRP it is -0.351.

In the case of RRIRLRPPRLPRPRPRPHGSPRP, the “shrunken log2 fold change” value was -0.0692. The figure for RRIRRRPPRLPRPRPRPQSFPRP is 0.0366; for RRIRFRPPRLPRPRPRPYMIPRP it is -0.59. The result for RRIRYRPPRLPRPRPRPTVKPRP reads -0.428; that for RRIRIRPPRLPRPRPRPADEPRP, -0.08.

For the sequence RRIRARPPRLPRPRPRPDMNPRP, the “shrunken log2 fold change” value worked out at 0.31.

In the case of RRIRCRPPRLPRPRPRPRFVPRP, the “shrunken log2 fold change” value amounted to 0.15. The figure for RRIRNRPPRLPRPRPRPLCCPRP is -0.371; for RRIRWRPPRLPRPRPRPMGPPRP it is 0.041; for RRIRRRPPRLPRPRPRPCATPRP it is 0.586. The result for RRIRRRPPRLPRPRPRPWNWPRP reads 2.98; that for RRIRKRPPRLPRPRPRPCPPPRP, 0.0811. The figure for RRIRKRPPRLPRPRPRPNLRPRP is 0.211; for RRIRWRPPRLPRPRPRPCISPRP it is 0.169; for RRIRNRPPRLPRPRPRPQRAPRP it is 0.0993. Regarding RRIRIRPPRLPRPRPRPDRLPRP, the “shrunken log2 fold change” value is -0.453. The figure for RRIRIRPPRLPRPRPRPKKVPRP is -0.291.

Turning to RRIRSRPPRLPRPRPRPRNCPRP, the “shrunken log2 fold change” value was determined as 0.5. The result for RRIRQRPPRLPRPRPRPECTPRP reads 0.0484.

With RRIRLRPPRLPRPRPRPLDGPRP, the “shrunken log2 fold change” value was -0.0562. Consider RRIRPRPPRLPRPRPRPMDAPRP, for which the “shrunken log2 fold change” value was -0.128. The result for RRIRQRPPRLPRPRPRPLNYPRP reads -0.548. Consider RRIRPRPPRLPRPRPRPFQFPRP, for which the “shrunken log2 fold change” value was -0.467. Take RRIRKRPPRLPRPRPRPVWYPRP: the “shrunken log2 fold change” value was 0.0528. As to RRIRMRPPRLPRPRPRPFLRPRP, the “shrunken log2 fold change” value was -0.22.

For the sequence RRIRYRPPRLPRPRPRPDHDPRP, the “shrunken log2 fold change” value was -0.133. In the case of RRIRCRPPRLPRPRPRPQKRPRP, the “shrunken log2 fold change” value worked out at 0.0237. The result for RRIRMRPPRLPRPRPRPTLFPRP reads 0.428. The result for RRIRNRPPRLPRPRPRPCLDPRP reads -0.0122; that for RRIRWRPPRLPRPRPRPKSIPRP, -0.017; that for RRIRPRPPRLPRPRPRPCNCPRP, -0.107. The result for RRIRYRPPRLPRPRPRPKVHPRP reads -0.677. Consider RRIRHRPPRLPRPRPRPFETPRP, for which the “shrunken log2 fold change” value is 0.0877. Turning to RRIRKRPPRLPRPRPRPEQFPRP, the “shrunken log2 fold change” value is -0.0303. For RRIRHRPPRLPRPRPRPLTYPRP, the “shrunken log2 fold change” value was -0.402. The result for RRIRWRPPRLPRPRPRPGMGPRP reads 0.525. In the case of RRIRTRPPRLPRPRPRPMNPPRP, the “shrunken log2 fold change” value is -0.141.

Take RRIRSRPPRLPRPRPRPHKRPRP: the “shrunken log2 fold change” value turned out to be 0.0245. The result for RRIRLRPPRLPRPRPRPFPRPRP reads -0.163; that for RRIRCRPPRLPRPRPRPGSRPRP, 0.235. The result for RRIRGRPPRLPRPRPRPHVRPRP reads 0.427.
